Results: paper PMC11856660 (PLOS Pathogens, 2025)

Target: the molecule itself
Assay: […] (25 mM HEPES pH 8, 300 mM NaCl, 10% glycerol, 1 mM TCEP); […]; 20 °C; […]

B1: HCoV-229E nsp15 protein, wild type (recombinant, hexameric) (enzyme)
chain: GLENIAFNVVNKGSFVGADGELPVAISGDKVFVRDGNTDNLVFVNKTSLPTNIAFELFAKRKVGLTPPLSILKNLGVVATYKFVLWDYEAERPLTSFTKSVCGYTDFAEDVCTCYDNSIQGSYERFTLSTNAVLFSATAVKTGGKSLPAIKLNFGMLNGNAIATVKSEDGNIKNINWFVYVRKDGKPVDHYDGFYTQGRNLQDFLPRSTMEEDFLNMDIGVFIQKYGLEDFNFEHVVYGDVSKTTLGGLHLLISQVRLSKMGILKAEEFVAASDITLKCCTVTYLNDPSSKTVCTYMDLLLDDFVSVLKSLDLTVVSKVHEVIIDNKPWRWMLWCKDNAVATFYPQLQ
notes: source: T7 Express E. coli, purified (Ni-NTA, SEC)
stoichiometry N: 6
